What was measured:
[1] = biological target: T1, VPS4A MIT domain (residues 1–84) (human, UniProt Q9UN37 1-84); assay: ITC
T1 chain: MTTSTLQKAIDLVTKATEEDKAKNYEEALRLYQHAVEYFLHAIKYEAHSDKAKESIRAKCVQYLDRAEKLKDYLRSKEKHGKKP

[2] = biological target: T2, VPS4A MIT domain (residues 1–84) (human, UniProt Q9UN37 1-84); assay: ITC; titrants (GST-pUL71, GST-CHMP6 or peptides) titrated into VPS4A MIT domain in the cell; 25°C; 50 mM HEPES pH 8, 100 mM NaCl, 0.5 mM TCEP; 19×2 μL or 12×3 μL injections; one-site binding model; details: both partners purified
T2 construct: human VPS4A, MIT domain, residues 1-84 of UniProt Q9UN37; cloned into pOPT3G with an N-terminal GST and a human rhinovirus 3C site; the tag was removed with 3C protease; also called VPS4 MIT domain; source: E. coli T7 Express lysY/Iq, purified (glutathione Sepharose, 3C cleavage, SEC); not shown: GST, N-terminal, cleaved
T2 sequence (looked up): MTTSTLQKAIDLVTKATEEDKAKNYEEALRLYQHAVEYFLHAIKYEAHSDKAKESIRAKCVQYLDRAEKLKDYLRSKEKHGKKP

B1: GST-CHMP6 MIM2 (domain or fragment, human, UniProt Q96FZ7 166-181, looked up)
chain: EQIELPEVPSEPLPEK
notes: human CHMP6 MIM2; pGEX4T2, annealed primers pGEX CHMP6 MIM2 fwd and rev; also called GST-tagged CHMP6 MIM2 motif; source: E. coli, purified following bacterial expression; not shown: GST, N-terminal, kept
[1]
  Kd: 15.3 µM
[2]
  Kd: 5.54 µM
  dH: -2.37 kcal/mol
  stoichiometry N: 0.84

Reference: article PMC11218997, “Human cytomegalovirus deploys molecular mimicry to recruit VPS4A to sites of virus assembly” (PLOS Pathogens, 2024)
